The values that follow come from publication PMC9132681 (Biochimie, 2022).

The chains are these.
B1: C-terminal domain of human Hsp90 (residues 566-732) (domain or fragment)
chain: not shown
B2: cytosolic fragment of human TOM70 (residues 111-608), His-tagged (domain or fragment)
chain: LDRAQAAKNKGNKYFKAGKYEQAIQCYTEAISLCPTEKNVDLSTFYQNRAAAFEQLQKWKEVAQDCTKAVELNPKYVKALFRRAKAHEKLDNKKECLEDVTAVCILEGFQNQQSMLLADKVLKLLGKEKAKEKYKNREPLMPSPQFIKSYFSSFTDDIISQPMLKGEKSDEDKDKEGEALEVKENSGYLKAKQYMEEENYDKIISECSKEIDAEGKYMAEALLLRATFYLLIGNANAAKPDLDKVISLKEANVKLRANALIKRGSMYMQQQQPLLSTQDFNMAADIDPQNADVYHHRGQLKILLDQVEEAVADFDECIRLRPESALAQAQKCFALYRQAYTGNNSSQIQAAMKGFEEVIKKFPRCAEGYALYAQALTDQQQFGKADEMYDKCIDLEPDNATTYVHKGLLQLQWKQDLDRGLELISKAIEIDNKCDFAYETMGTIEVQRGNMEKAIDMFNKAINLAKSEMEMAHLYSLCDAAHAQTEVAKKYGLKPPTL

Experiment [1] has as its target B2. As to the kind of experiment: SEC-MALS. A general note: SEC sorts molecules by how far they enter the pores of the column.
Another experiment deals with full-length human Hsp90 (human, UniProt P07900 1-732). As to the kind of experiment: pull-down.

Take B1: in experiment [1], the “stoichiometry N” value amounted to 2 C-Hsp90 per TOM70.

With B2, in the experiment with full-length human Hsp90, the binding result is reported as “binds”.

In general, stoichiometry N refers to a count of units in the complex or per binding partner.
